Blank lines part the entries; values can stand above or below the binder they belong to. Where no end group is shown, it is not given here. (CH2CH2O)27 = 27 units of polyethylene glycol linked to the C-terminal Asp, ending in NH2
What was measured:
[1] = biological target: T1, human CCR3 in membrane preparations, 13C-reductively methylated (CCR3-K-di13CH3) (human, UniProt P51677 1-355, lysines reductively methylated with 13C (K-di13CH3)); assay: NMR, 13C HSQC of 13C-reductively methylated CCR3 membrane preps (0.25 mg/ml) with 1 µM CCL11
T1 construct: also called CCR3 membrane preps; C-C chemokine receptor 3
T1 sequence (looked up): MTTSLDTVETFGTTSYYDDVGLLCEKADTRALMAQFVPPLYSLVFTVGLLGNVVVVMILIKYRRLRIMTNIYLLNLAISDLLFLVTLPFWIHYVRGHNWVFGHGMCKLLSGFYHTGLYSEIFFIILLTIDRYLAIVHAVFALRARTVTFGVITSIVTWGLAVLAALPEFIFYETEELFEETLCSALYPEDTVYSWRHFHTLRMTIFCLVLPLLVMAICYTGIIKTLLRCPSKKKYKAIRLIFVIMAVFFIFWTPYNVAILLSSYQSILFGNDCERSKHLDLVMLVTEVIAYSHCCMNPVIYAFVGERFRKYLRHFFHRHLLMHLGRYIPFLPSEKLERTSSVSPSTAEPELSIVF
Method: FIG. 6A to FIG. 6E show NMR evaluation of the binding of R3-2-1 and CCL11/eotaxin-1 to CCR3 membrane preparations. ¹³C HSQC spectra of ¹³C-reductively methylated CCR3 membrane preps (0.25 mg/ml) were recorded with 1 μM CCL11 and 10 μM R321. FIG. 6A, reductively methylated CCR3 (CCR3-K-di¹³CH3) (gray) and reductively methylated CCR3 with CCL11 (black); FIG. 6B, reductively methylated CCR3 (CCR3-K-di¹³CH3) (gray) and reductively methylated CCR3 with R321 (black); FIG. 6C, reductively methylated CCR3 (CCR3-K-di¹³CH3) (gray) and reductively methylated CCR3 with CCL11 and R321 (black); FIG. 6D, reductively methylated CCR3 with CCL11 (gray) and reductively methylated CCR3 with CCL11 and R321 (black); and FIG. 6E, reductively methylated CCR3 with R321 (gray) and reductively methylated CCR3 with CCL11 and R321 (black) show chemical shift changes indicative of binding. Black arrows indicate the differences in chemical shifts.

[2] = biological target: T2, human CCR3 on cells (AML14.3D10-CCR3 cells, blood eosinophils, 4DE4-CCR3 cells) (human, UniProt P51677 1-355); assay: cell-based or functional assay
T2 sequence (looked up): T1 sequence (looked up)

binding result [1]: binds
B1: recombinant human CCL11 (ligand)
chain: not shown
notes: also called eotaxin; eotaxin-1

IC50 of inhibition of CCL11/Eotaxin-1 (12 nM)-induced chemotaxis, AML14.3D10-CCR3 cells [2]: 210 nM | IC50 of inhibition of CCL11/Eotaxin-1 (12 nM)-induced chemotaxis, blood eosinophils [2]: 110 nM | IC50 of inhibition of CCL24/Eotaxin-2 (20 nM)-induced chemotaxis, AML14.3D10-CCR3 cells [2]: 140 nM | IC50 of inhibition of CCL24/Eotaxin-2 (20 nM)-induced chemotaxis, blood eosinophils [2]: 80 nM | IC50 of inhibition of CCL26/Eotaxin-3 (100 nM)-induced chemotaxis, AML14.3D10-CCR3 cells [2]: 100 nM | IC50 of inhibition of CCL26/Eotaxin-3 (100 nM)-induced chemotaxis, blood eosinophils [2]: 160 nM
B2: R3-2-1 peptide (CCR3 second transmembrane helix peptide analog, PEG27, C-terminal amide) (peptide)
peptide: LLFLVTLPFWIHYVRGHNWVFGHDDD-{(CH2CH2O)27-NH2}

From patent US20190374608A1 (BOARD OF TRUSTEES OF THE UNIVERSITY OF ILLINOIS, published 2019)
